Measurements published in patent publication US20240270821A1, “GIP/GLP1/GCG TRI-RECEPTOR AGONISTS AND USES THEREOF” (priority 2023, published 2024).

T1: human GIP receptor (human) (UniProt P48546)
T1 sequence (looked up): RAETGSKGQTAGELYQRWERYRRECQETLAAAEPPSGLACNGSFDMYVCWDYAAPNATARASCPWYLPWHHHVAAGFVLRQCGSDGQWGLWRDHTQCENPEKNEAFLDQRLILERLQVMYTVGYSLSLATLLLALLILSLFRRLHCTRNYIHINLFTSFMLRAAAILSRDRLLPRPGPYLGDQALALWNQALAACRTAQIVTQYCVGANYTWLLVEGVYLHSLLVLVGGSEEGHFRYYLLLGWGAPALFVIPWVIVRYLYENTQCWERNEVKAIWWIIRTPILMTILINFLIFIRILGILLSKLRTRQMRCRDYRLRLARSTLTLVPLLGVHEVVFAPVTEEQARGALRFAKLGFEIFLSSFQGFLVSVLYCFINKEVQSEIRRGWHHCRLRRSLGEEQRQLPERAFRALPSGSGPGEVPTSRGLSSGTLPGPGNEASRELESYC


How the values were obtained:
Experiment in all cases: cell-based or functional assay
[1] = molecular target: hGLP-1R (Homo sapiens, UniProt P43220)
[2] = molecular target: T1, human GIP receptor (human)
[3] = molecular target: human glucagon receptor (human) (UniProt P47871)
Sequence of human glucagon receptor (human) (P47871 26-477): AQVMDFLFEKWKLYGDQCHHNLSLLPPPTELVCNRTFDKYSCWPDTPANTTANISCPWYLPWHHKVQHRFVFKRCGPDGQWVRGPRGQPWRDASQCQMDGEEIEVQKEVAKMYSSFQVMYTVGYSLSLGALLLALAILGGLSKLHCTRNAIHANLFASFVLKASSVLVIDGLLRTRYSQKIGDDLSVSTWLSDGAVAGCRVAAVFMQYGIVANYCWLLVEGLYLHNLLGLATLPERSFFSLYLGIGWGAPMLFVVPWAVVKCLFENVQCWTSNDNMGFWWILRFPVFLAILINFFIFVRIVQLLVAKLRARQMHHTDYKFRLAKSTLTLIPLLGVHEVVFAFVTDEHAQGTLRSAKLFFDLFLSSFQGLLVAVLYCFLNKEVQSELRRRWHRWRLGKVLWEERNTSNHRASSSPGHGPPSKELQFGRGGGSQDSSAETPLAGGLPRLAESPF

Sequence of hGLP-1R (P43220 24-463): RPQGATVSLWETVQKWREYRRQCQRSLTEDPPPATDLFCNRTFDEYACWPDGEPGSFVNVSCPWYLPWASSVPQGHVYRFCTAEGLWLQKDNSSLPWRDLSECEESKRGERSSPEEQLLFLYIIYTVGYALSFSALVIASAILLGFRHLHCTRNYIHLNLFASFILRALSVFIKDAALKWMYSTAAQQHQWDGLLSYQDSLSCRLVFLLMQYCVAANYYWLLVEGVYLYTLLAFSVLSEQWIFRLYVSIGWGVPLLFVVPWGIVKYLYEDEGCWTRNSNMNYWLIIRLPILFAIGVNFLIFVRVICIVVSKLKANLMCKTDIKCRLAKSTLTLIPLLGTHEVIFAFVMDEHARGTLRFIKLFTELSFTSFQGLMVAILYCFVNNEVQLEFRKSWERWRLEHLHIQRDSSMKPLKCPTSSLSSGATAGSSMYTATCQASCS

Binder	cAMP Rel EC50, nM (1% HSA) [1]	cAMP Rel EC50, nM (1% HSA) [2]	cAMP Rel EC50, nM (1% HSA) [3]	Relative cAMP EC50 [1]	Relative cAMP EC50 [2]	Relative cAMP EC50 [3]
YXQGTFTSDXSXXLDKKAQXAFIEXLIEGGPSSGAPPPSGSEE (Aib, 4Pal, Me4Pal, Orn, alpha-methyl-Leu, lipidated Lys, amide; synthetic construct; SITE 2: note = 2-Aminoisobutyric Acid; SITE 10: note = 3-(4-Pyridyl)-L-alanine; SITE 12: note = L-ornithine; SITE 13: note = alpha-methyl-leucine; SITE 17: note = Lysine is chemically modified through conjugation of the epsilon-amino group of the Lysine side chain with (2-[2-(2-) [Example 955]	1380 nM	42.3 nM	366 nM	–	–	–
YXQGTFTSDXSRXLDKKAQXAFIEXLIEGGPSSGAPPPSGSEE (acylated lysine AEEA-γGlu-C18 diacid; non-natural residues; C-terminal amide; synthetic construct; SITE 2: note = 2-Aminoisobutyric Acid; SITE 10: note = 3-(4-Pyridyl)-L-alanine; SITE 13: note = alpha-methyl-leucine; SITE 17: note = Lysine is chemically modified through conjugation of the epsilon-amino group of the Lysine side chain with (2-[2-(2-Amino-ethoxy)-ethoxy]-acetyl)) [Example 956]	643 nM	32.1 nM	406 nM	–	–	–
YXQGTFTSDXSQXLDKKAQXAFIEXLIEGGPSSGAPPPSGSEE (non-natural residues; Lys acylated C18 diacid; C-terminal amide; synthetic construct; SITE 2: note = 2-Aminoisobutyric Acid; SITE 10: note = 3-(4-Pyridyl)-L-alanine; SITE 13: note = alpha-methyl-leucine; SITE 17: note = Lysine is chemically modified through conjugation of the epsilon-amino group of the Lysine side chain with (gamma-Glu)2-CO-(CH2)16-CO2H; SITE 20:) [Example 957]	747 nM	25 nM	947 nM	–	–	–
YXQGTFTSDXSXXLDKKAQXAFIEXLIEGGPSSGAPPPSGSEE (Aib, 4Pal, Orn, αMeL, Me4Pal, acylated K, C-terminal amide; synthetic construct; SITE 2: note = 2-Aminoisobutyric Acid; SITE 10: note = 3-(4-Pyridyl)-L-alanine; SITE 12: note = L-ornithine; SITE 13: note = alpha-methyl-leucine; SITE 17: note = Lysine is chemically modified through conjugation of the epsilon-amino group of the Lysine side chain with (gamma-Gl)) [Example 958]	850 nM	27.1 nM	340 nM	–	–	–
YXQGTFTSDXSRXLDKKAQXAFIEXLIEGGPSSGAPPPSGSEE (Aib, 4Pal, αMeL, Me4Pal; acylated Lys; C-terminal amide; synthetic construct; SITE 2: note = 2-Aminoisobutyric Acid; SITE 10: note = 3-(4-Pyridyl)-L-alanine; SITE 13: note = alpha-methyl-leucine; SITE 17: note = Lysine is chemically modified through conjugation of the epsilon-amino group of the Lysine side chain with (gamma-Glu)2-CO-(CH2)16-CO2H; SITE 20:) [Example 959]	503 nM	24.5 nM	316 nM	–	–	–
YXQGTFTSDXSQXLDKKAQXAFIEYLIAGGPSSGAPPPSGSEE (Aib, 4Pal, Me4Pal, αMeL; lipidated Lys; C-terminal amide; synthetic construct; SITE 2: note = 2-Aminoisobutyric Acid; SITE 10: note = 3-(4-Pyridyl)-L-alanine; SITE 13: note = alpha-methyl-leucine; SITE 17: note = Lysine is chemically modified through conjugation of the epsilon-amino group of the Lysine side chain with (gamma-Glu)2-CO-(CH2)16-CO2H; SITE 20:) [Example 960]	161 nM	14.1 nM	813 nM	1.51 nM	0.124 nM	5.5 nM
YXQGTFTSDXSXXLDKKAQXAFIEYLIAGGPSSGAPPPSGSEE (Lys acylated (γGlu)2-C18 diacid; non-natural residues; C-amide; synthetic construct; SITE 2: note = 2-Aminoisobutyric Acid; SITE 10: note = 3-(4-Pyridyl)-L-alanine; SITE 12: note = L-ornithine; SITE 13: note = alpha-methyl-leucine; SITE 17: note = Lysine is chemically modified through conjugation of the epsilon-amino group of the Lysine side chain with (gamma-Gl)) [Example 961]	216 nM	13.6 nM	342 nM	2.52 nM	0.167 nM	2.96 nM
YXQGTFTSDXSRXLDKKAQXAFIEYLIAGGPSSGAPPPSGSEE (Aib, 4Pal, αMeL, Me4Pal; γGlu2-C18 diacid Lys; C-term amide; synthetic construct; SITE 2: note = 2-Aminoisobutyric Acid; SITE 10: note = 3-(4-Pyridyl)-L-alanine; SITE 13: note = alpha-methyl-leucine; SITE 17: note = Lysine is chemically modified through conjugation of the epsilon-amino group of the Lysine side chain with (gamma-Glu)2-CO-(CH2)16-CO2H; SITE 20:) [Example 962]	132 nM	9.71 nM	485 nM	1.36 nM	0.0972 nM	3.13 nM
YXQGTFTSDXSQXLDKKAQXAFIEYLIAGGESSGAPPPSGSEE (non-natural residues, C18 diacid-(γGlu)2 acyl on K, C-terminal amide; synthetic construct; SITE 2: note = 2-Aminoisobutyric Acid; SITE 10: note = 3-(4-Pyridyl)-L-alanine; SITE 13: note = alpha-methyl-leucine; SITE 17: note = Lysine is chemically modified through conjugation of the epsilon-amino group of the Lysine side chain with (gamma-Glu)2-CO-(CH2)16-CO2H; SITE 20:) [Example 963]	215 nM	25.1 nM	900 nM	1.77 nM	0.244 nM	5.81 nM
YXQGTFTSDXSXXLDKKAQXAFIEYLIAGGESSGAPPPSGSEE (Aib, 4Pal, Orn, αMeL, Me4Pal; acylated Lys; C-terminal amide; synthetic construct; SITE 2: note = 2-Aminoisobutyric Acid; SITE 10: note = 3-(4-Pyridyl)-L-alanine; SITE 12: note = L-ornithine; SITE 13: note = alpha-methyl-leucine; SITE 17: note = Lysine is chemically modified through conjugation of the epsilon-amino group of the Lysine side chain with (gamma-Gl)) [Example 964]	267 nM	21.4 nM	324 nM	2.67 nM	0.288 nM	2.75 nM
YXQGTFTSDXSRXLDKKAQXAFIEYLIAGGESSGAPPPSGSEE (C-terminal amide; lysine acylated with (γ-Glu)2-C18 diacid; synthetic construct; SITE 2: note = 2-Aminoisobutyric Acid; SITE 10: note = 3-(4-Pyridyl)-L-alanine; SITE 13: note = alpha-methyl-leucine; SITE 17: note = Lysine is chemically modified through conjugation of the epsilon-amino group of the Lysine side chain with (gamma-Glu)2-CO-(CH2)16-CO2H; SITE 20:) [Example 965]	194 nM	23.2 nM	430 nM	1.39 nM	0.13 nM	3.35 nM
YXQGTFTSDXSXXLDKKAQXAFIEXLIEGGPSSGAPPPSGSE (acylated Lys (γGlu)2-C18 diacid; non-natural residues; C-terminal amide; synthetic construct; SITE 2: note = 2-Aminoisobutyric Acid; SITE 10: note = 3-(4-Pyridyl)-L-alanine; SITE 12: note = L-ornithine; SITE 13: note = alpha-methyl-leucine; SITE 17: note = Lysine is chemically modified through conjugation of the epsilon-amino group of the Lysine side chain with (gamma-Gl)) [Example 966]	257 nM	35.9 nM	581 nM	–	–	–
YXQGTFTSDXSXXLDKKAQXAFIEXLIEGGPSSGAPPPSGSEE (Aib, 4Pal, Orn, Me4Pal, αMeY; acylated lysine; amide; synthetic construct; SITE 2: note = 2-Aminoisobutyric Acid; SITE 10: note = 3-(4-Pyridyl)-L-alanine; SITE 12: note = L-ornithine; SITE 13: note = alpha-methyl-leucine; SITE 17: note = Lysine is chemically modified through conjugation of the epsilon-amino group of the Lysine side chain with (gamma-Gl)) [Example 967]	345 nM	39.5 nM	508 nM	–	–	–
YXQGTFTSDXSQXLDKKAQXAFIEYLIAGGPSSGEPPPSGS (non-natural residues; lipidated Lys (γGlu)2-C18 diacid; C-term amide; synthetic construct; SITE 2: note = 2-Aminoisobutyric Acid; SITE 10: note = 3-(4-Pyridyl)-L-alanine; SITE 13: note = alpha-methyl-leucine; SITE 17: note = Lysine is chemically modified through conjugation of the epsilon-amino group of the Lysine side chain with (gamma-Glu)2-CO-(CH2)16-CO2H; SITE 20:) [Example 968]	103 nM	11.7 nM	625 nM	1.04 nM	0.0928 nM	4.72 nM
YXQGTFTSDXSQXLDKKAQXAFIEYLIAGGPSSGAPPPEGS (non-natural residues, C18 diacid acylation; synthetic construct; SITE 2: note = 2-Aminoisobutyric Acid; SITE 10: note = 3-(4-Pyridyl)-L-alanine; SITE 13: note = alpha-methyl-leucine; SITE 17: note = Lysine is chemically modified through conjugation of the epsilon-amino group of the Lysine side chain with (gamma-Glu)2-CO-(CH2)16-CO2H; SITE 20:) [Example 969]	113 nM	12.6 nM	660 nM	1.21 nM	0.142 nM	5.48 nM
